Test [1] addresses Human PAR2 wild type, recombinantly expressed in HEK293 cells with par1 and par2 knocked-out (human) (UniProt P55085). Briefly: cell-based or functional assay.
Test [2] addresses PAR2 endogenously expressed in HEK293 cells (human) (UniProt P55085). Briefly: cell-based or functional assay.
In test [3] the target is PAR2 with the signal peptide deleted (PAR2ΔSP) (human) (UniProt P55085). In words: cell-based or functional assay.
The test system of test [4] is HEK293 cells with par1 and par2 knocked-out. Briefly: FLIPR characterization of par1 and par2 knock-out HEK293 cells. Type of test: cell-based, human. From the text: A PAR1, PAR2 knock-out HEK293 cell line was created by Applied StemCells (Milpitas, Calif.) using a CRISPR/Cas9 approach. Briefly, the coding region (nucleotide 374-643) of PAR1, which encodes the protein region transmembrane region 2 (TM2) to transmembrane region 3 (TM3) of PAR1, was deleted. Similarly, the coding region (281-627) of PAR2, which encodes the protein region TM2 to TM3 of PAR2, was deleted. Single cell clones were isolated. PCR analysis of the genomic DNA followed by DNA sequencing was used to confirm the deletion of the DNA fragments.
FLIPR-Tetra (Molecular Device, San Jose, Calif.) was used to monitor intracellular Ca^2+ mobilization in HEK293 cells, HEK293 cells with PAR1 and PAR2 knocked-out, and cells transiently transfected with various PAR2 expression constructs. Cells were grown in 96-well polyD-lysine coated black FLIPR plates (Corning) in DMEM supplemented with 10% FCS, 1 mM pyruvate, 20 mM HEPES, at 37° C. with 5% CO2. For transient transfection, cells were grown in 96-well polyD-lysine coated black FLIPR plates and transfected using FuGENE HD (Promega, Madison, Wis.) as the transfection reagent according to the manufacturer's instructions. […] Intracellular Ca^2+ mobilization stimulated by various concentrations of ligands (trypsin, or peptide ligand) was monitored by FLIPR-Tetra as described (Liu et al., Mol. Pharmacol. 88:911-25 (2015)). […]

This is an account of results in patent publication US20220125898A1, “PAR2 MODULATION AND METHODS THEREOF” (JANSSEN BIOTECH, INC., priority 2019, published 2022).

For the substance Trypsin (sequencing grade) (enzyme), the results for the EC50, FLIPR intracellular Ca2+ mobilization in test [1], in test [2] and in test [3] were 1.5 nM, 10 nM and 50 nM, respectively.

Turning to thrombin, in test [4], the “response of knock-out cells to ligand” value is reported as “lack of response”.
